The text below walks through data of article PMC4609183 (The EMBO Journal, 2015).

The chains are these.
B1: R0RBR parkin (residues 141–465, lacking Ubl domain and linker) (domain or fragment, human, UniProt O60260 141-465, looked up)
chain: SIYNSFYVYCKGPCQRVQPGKLRVQCSTCRQATLTLTQGPSCWDDVLIPNRMSGECQSPHCPGTSAEFFFKCGAHPTSDKETSVALHLIATNSRNITCITCTDVRSPVLVFQCNSRHVICLDCFHLYCVTRLNDRQFVHDPQLGYSLPCVAGCPNSLIKELHHFRILGEEQYNRYQQYGAEECVLQMGGVLCPRPGCGAGLLPEPDQRKVTCEGGNGLGCGFAFCRECKEAYHEGECSAVFEASGTTTQAYRVDERAAEQARWEAASKETIKKTTKPCPRCHVPVEKNGGCMHMKCPQPQCRLEWCWNCGCEWNRVCMGDHWFDV
B2: parkin Ubl domain (domain or fragment, human, UniProt O60260 1-76, looked up)
chain: MIVFVRFNSSHGFPVEVDSDTSIFQLKEVVAKRQGVPADQLRVIFAGKELRNDWTVQNCDLDQQSIVHIVQRPWRK

Assay in all cases: ITC; 50 μM R0RBR, full-length parkin or phosphoparkin titrated with Ub, Ubl or their variants; 25°C; 50 mM HEPES, 50 mM NaCl, 250 μM TCEP pH 7.5 or 50 mM HEPES, 150 mM NaCl, 0.5 mM TCEP pH 8.0; single-site model
Common to all, as to details: both partners purified
(In general: In ITC the heat of successive injections is recorded.)

One experiment addresses ubiquitin (UniProt P0CG47 1-76).
In the next experiment the target is phosphoubiquitin (UniProt P0CG47 1-76, phosphoserine at 65).
Experiment [1] deals with B1.

Take B1: the results for the dissociation constant Kd in the experiment with ubiquitin and with phosphoubiquitin were 67 ± 1 µM and 0.016 ± 0.002 µM, respectively.
With B2, in experiment [1], binding was characterised by a dissociation constant (Kd) of 3.8 ± 1.3 µM, the dH was -10.5 ± 0.717 kcal/mol and the “stoichiometry N” value turned out to be 0.98.

One may read the Kd as the constant that tells how readily two partners part at equilibrium. Low values mean higher affinity, high ones lower affinity. Usually stoichiometry N stands for a count of units in the complex or per binding partner.
